Test results: US20070026008A1

What was measured:
[1] = target: mouse B6 class I antigens (mouse); experiment: RMA-S cell MHC stabilisation, peptide 25 ug/ml, flow cytometry with FITC anti-D^b or anti-K^b; % increase of MFI over medium alone
[2] = target: mouse B6 class I antigens (mouse); experiment: Binding of 9-mer peptides within p117-139 to mouse B6 (H-2^b) class I; RMA-S cell MHC stabilisation, flow cytometry

For NLYQMTSQL [WT1 peptide p225-233 (…)], which Binding Affinity to Mouse MHC Class I [1] is on record?
The Binding Affinity to Mouse MHC Class I was 5.8%.

For ARMFPNAPY [WT1 peptide P125-133 (…)], which Binding Affinity to Mouse MHC Class I [2] is on record?
The Binding Affinity to Mouse MHC Class I was 1%.

For CMTWNQMNL [WT1 peptide p235-243 (…)], which Binding Affinity to Mouse MHC Class I [1] is on record?
The Binding Affinity to Mouse MHC Class I was 33.6%.

For SSGQARMFP [WT1 peptide P121-129 (…)], which Binding Affinity to Mouse MHC Class I [2] is on record?
Its Binding Affinity to Mouse MHC Class I is 1%.

For QASSGQARM [WT1 peptide P119-127 (…)], which Binding Affinity to Mouse MHC Class I [2] is on record?
The Binding Affinity to Mouse MHC Class I was 2%.

How did the Binding Affinity to Mouse MHC Class I [2] turn out when QARMFPNAP [WT1 peptide P124-132 (…)] was run?
The Binding Affinity to Mouse MHC Class I was 1%.

How did the Binding Affinity to Mouse MHC Class I [2] turn out when PSQASSGQA [WT1 peptide P117-125 (…)] was run?
The Binding Affinity to Mouse MHC Class I was 2%.

Which Binding Affinity to Mouse MHC Class I [2] does the source give for FPNAPYLPS [WT1 peptide P128-136 (…)] here?
The Binding Affinity to Mouse MHC Class I was 1%.

Which Binding Affinity to Mouse MHC Class I [2] does the source give for NAPYLPSCL [WT1 peptide P130-138 (…)] here?
Its Binding Affinity to Mouse MHC Class I is 79%.

ALLPAVPSL [WT1 peptide human p10-18 (…)] was tested. Which Binding Affinity to Mouse MHC Class I [1] did it give?
Its Binding Affinity to Mouse MHC Class I is 2.2%.

SCLESQPAI [WT1 peptide human p136-144 (…)] was tested. Which Binding Affinity to Mouse MHC Class I [1] did it give?
Its Binding Affinity to Mouse MHC Class I is 52%.

How did the Binding Affinity to Mouse MHC Class I [1] turn out when GCNKRYFKL [WT1 peptide p329-337 (…)] was run?
Its Binding Affinity to Mouse MHC Class I is 1.2%.

Which Binding Affinity to Mouse MHC Class I [1] does the source give for NQMNLGATL [WT1 peptide p239-247 (…)] here?
Its Binding Affinity to Mouse MHC Class I is 1%.

For SQASSGQAR [WT1 peptide P118-126 (…)], which Binding Affinity to Mouse MHC Class I [2] is on record?
Its Binding Affinity to Mouse MHC Class I is 2%.

With MFPNAPYLP [WT1 peptide P127-135 (…)] as the binder, how does the Binding Affinity to Mouse MHC Class I [2] read?
Its Binding Affinity to Mouse MHC Class I is 2%.

How did the Binding Affinity to Mouse MHC Class I [2] turn out when PNAPYLPSC [WT1 peptide P129-137 (…)] was run?
The Binding Affinity to Mouse MHC Class I was 1%.

How did the Binding Affinity to Mouse MHC Class I [2] turn out when ASSGQARMF [WT1 peptide P120-128 (…)] was run?
Its Binding Affinity to Mouse MHC Class I is 1%.

How did the Binding Affinity to Mouse MHC Class I [1] turn out when QMTSQLECM [WT1 peptide p228-236 (…)] was run?
Its Binding Affinity to Mouse MHC Class I is 1.2%.

APYLPSCLE [WT1 peptide P131-139 (…)] was tested. Which Binding Affinity to Mouse MHC Class I [2] did it give?
The Binding Affinity to Mouse MHC Class I was 1%.

YSSDNLYQM [WT1 peptide p221-229 (…)] was tested. Which Binding Affinity to Mouse MHC Class I [1] did it give?
The Binding Affinity to Mouse MHC Class I was 0.8%.
